Laboratory results taken from the DeepSol protein solubility set.

test: soluble on expression in E. coli; label from the status in PepcDB or PDB records

Row | Sequence | soluble on expression in E. coli
1 | MGSDKIHHHHHHMFEKQFNHRTLETSLGPVEIEGPVTSQILATYKLDPGLTAFRQPAEQHEALVEIAALEEGRIIIARQGNDIIGYVTFLYPDPYETWSEGNNPYILELGAIEVAARFRGQQIGKKLLEVSMLDPAMEHYLILTTEYYWHWDLKGSGLSVWDYRKIMEKMMNHGGLVFFPTDDPEIASHPANCLMARIGKHVAPEVVAHFDALRLRRRFMYD | not soluble
2 | VNKLSPRFEINEGTYSSFAVAQEGAAPGAGEVRTHRIAVGLYSLIDGSVTRTHRVELDVDSELTEVPELVGVPAADLVIVNDDDLTYCLMQLDPASLAFVVENIDKIADPMARTLCWSAAWEMTRDGSMRARDFVRLIARGAQAETEIAVLERVLMQASRALSSYVDPQWAEQEGSALLADAMLQAARELEPGSDAQLAFVQALAKVKLTDEAAAEFALIAKGSTSLPGVVVDSDLRWWALTALIARGDVPAAEVEQRIAQLLALDKSSAGELAALRAYAAQPSQDVKAKIFAQITDPANSLSNLYLRHKLEGLQFAGSAPYLEQFSESVFELVEPLWKALSSEVAAVTVTGIYPSWDVSAESVERAHAFLDAHPDLPGAARRIISEGAAGQERAVRLRAIDAA | not soluble
3 | MGSDKIHHHHHHMEPFSPLNWFRRSSSQASCRTALSSQPSLEAAVNEVAAALAGGSSADLALVFASTHYASDLQRLLPLLQRRLKATHWLGCAGGGVIGTTAKGNASELEKEPALSITMLQLPGAILKPFYLETQSLPDLDGPAQHWQEWVGADPFNARSMLLLVDPSSRSINDLISGLDYAYPTTTKLGGIAGPHNAPHGSLFFDDRVVMGAVGCSFGGDWNLEVVVAQGCKPIGPVFAIEQVQKNILLELSHENQRDSPMACLQRVLDDLSEEEREMVRHSLFLGIERRDLVLAGTGAPQPQGAFLVRNLIGVDPKNGAVAVAEQIRAGQNVQFQLREAEASRQESELLLGAARERNTSPPLFGLLMACLGRGHGLYGVPNGDVHIARKLMAELPIAGVFCNGEIGPAGGVGATHIHGYTACWGLLRHDPSSSEPAKSV | not soluble
4 | MTTPFTHETLPADPKAAIRQMKQALRAQIGDVQAVFDRLSATIAARVAEINDLKAQGQPVWPIIPFSELAMGNISDATRAEVKRRGCAVIKGHFPREQALAWDQSMLDYLDKNHFDEVYKGPGDNFFGTLSASRPEIYPVYWSQAQMQARQSEEMALAQSFLNRLWQVEHDGKRWFNPDISIIYPDRIRRRPPGTTSKGLGAHTDSGALERWLLPAYQQVFASVFNGNVEQYDPWNAAHRTDVEEYTVDNTTKCSVFRTFQGWTALSDMLPGQGLLHVVPIPEAMAYILLRPLLDDVPEDELCGVAPGRVLPISEQWHPLLMAALTSIPPLEAGDSVWWHCDVIHSVAPVENQQGWGNVMYIPAAPMCEKNLAYARKVKAALETGASPGDFPREDYETTWEGRFTLRDLNIHGKRALGIDV | soluble
5 | ITTKKGQEGKPAINVRTEFGFTAPTKRPEMINSAQWAELYNEASGTNYYSPEVIQKYRDHSDPDLYPDVDWFDALFDDMAENQRVNLSVTGGGDNIKYYVSGSFYNESSIYKNAGNIYGYNSAIRYNKFNFRANVDLNVTKSTTLNVNLANIYEKSFGPGFGDNDNDIWSYTFNASPNAFPVQYSDGTLSGPSTDSGHNPWNMLVHSGYREQFWNSAQSLIGLTQDFGKIWEPLEGLTANIKFSWDAWNTTLQRRSKSPSFYHARGRDAEGRLMYDDNNNDGEWDPVHTGSESLGYEIGRQGTMTRYLEGSLNYNRLFGNHRVGALFLYNQKIHTNTQAADGNAALPYKNQGLAGRVTYAFRDTYFAEVNMGYNGSENFARGHRFGFFPAFALGWMVSNEKWFEPLTKTIDMLKLKGSYGKVGNDDIGGQRRWVYESTIVGTGDQGWWFGQSGNQGGAGIRVGEIENLYASWEEATKLNLGVEFSLFNKVKVQADYFREERQGIFLQRAGLPAIVGLSTIPYVNIGRTLNKGFDANVEYNHQIGKVFLTARGNFTFSRNKLLDNDEPDWEYKYQNRIGKPFGSDGQMQPFGLVALGLFQSQEEIDNSPRQTFGEYRVGDIKYQDINGDGIIDTQDEVAIGYTNLPEIMYGFGLGAQWKNWDINAFFQGSAHTSFFLDGVSVKSPFSSGNMERAAINKDLWGKVWMSTNSPEQNAHVTYPRLSNGSGGAGASNNNKNSTWWLRNGSFLRLKNIEIGYTLPKEFVTKTFIKSLRFYVSGNNLLTFSSFKLWDPEKAKGSSDGSGYPLNRVVTVGFNANF | not soluble
6 | MAVMIVGGGMAGATLALAISRLSQGTIPVDLIEAYSPLDKEHPGFDARALALSDGTRQQLAALGIWQAMSGNATAITDIHVSERGHASVVNLHAADYHVQALGHVVELHDVGQRLFSLLQQAPGVRLHCPAKVVAVTRTQENATLTLDNGTALTGQLLVAADGSHSMLSQSCGIHWQQHEYDQVAVIANVTTGEPHRGRAFERFTPHGPLALLPMSNGRSSLVWCHDKHRQHDVDGWSETEFRQQLQLAFGWRLGQFTHIGERHSYPLRLLTASQHTSHRLALVGNAAQTLHPIAGQGFNLGIRDVMSLAETLVEAVKNQQDIGQYSVLSRYQQRREPDQHTTVAITDGLVRLFANRYTALAVGRNLGLIAMNNLPLMRDAFARRTLGWVERLEHHHHHH | not soluble
7 | SMITIKFDLNRYSCSWGAGGAFGGNRGLRPIPPEKGIFPLDHLHECDAEKKEYLGCLKSSAHKSEQCRHLSKKYLQCRMAKNLMAKQDMAELGFSGVKELDSTEDKNTESIEH | soluble
8 | GPGSMTEYKKLCAILAQLREEVTSLSCAFEGGEGQDTVALHSLSTSIQKLVTNAQPRLLKILRKATETDPNRQIYNEAMCAAIKQLFDDFCELLSCLFGVPMEEMVLSEGKINFEDSPSISWTEDVHNNYLLHLAQTEAWKKRIATNIADLVLFEEETRTVYFAEERKARETLLQIKRNEKTNILHMLKEREAAKWEAEVRRRNDEHKGLMNASSFYGVQNIATVLLRIPEPFRKLLAGNMAQLVRALRTTPEDPNIRRIRCNNRRVMMDYSHVVFCGECETCRILVAAAEILWYIMGYRVEYSTAPTSSLRTVIENNPPILLPCGRYASEHAIAVIGFEEYSERFFTLHEPDPMQDSDEWMVWYATLEALLARLEDCLV | not soluble
9 | MNIKEKIVVLRNTEDGSFLKSFKNKKDVLAYNVELTDSIQLASFLPEEAYNIQKEKIDNLAETLGCDVVVIEASYDLKFVDGEDVPELTKEQKVKSMVNGMFEQVFGGE | not soluble
10 | MVINQTFLQNNVMDKCNDKRKRGERDWDCPAEKDICISDRRYQLCMKELTNLVNNTRTHSHNDITFLKLNLKRKLMYDAAVEGDLLLKKNNYQYNKEFCKDIRWGLGDFGDIIMGTNMEGIGYSQVVENNLRSIFGTDEKAKQDRKQWWNESKEHIWRAMMFSLRSRLKEKFVWICKKDVTLKVEPQIYRWIREWGRDYMSELPKEQGKLNEKCASKLYYNNMAICMLPLCHDACKSYDQWITRKKKQWDVLSTKFSSVKKTQKIGTENIATAYDILKQELNGFKEATFENEINKRDNLYNHLCPCVVEEARKNTQENVKNVGSGVESKAASSNPITE | soluble
11 | MKAYDIEIVNDAAHAGEANHGWCFGLPPGIRPEQWPLDPDTGYPLMHGFTLLLPEDYRVHGPEIVALSFFSLAPDQNDGGPTSVDGIREMLIDPPAQPPAEAELRPFWEAGRNSHPRLHRMEDILGGAYALILLDAAEFSGAPCQPRALPAGNPLLAQTEPPQWLEAGSAASFVPDWAEDDYYLLRALGGRPAAGHQQRYPLRWTARAQDPNAGVVPSEYGDGGYQLPHYWLDGKIERDNYREHPWVEGHLPNHIGGTMRPVQGVPEMSPFYVEFEEYLGGYNFGGGNAQLDFRDMRFDWACG | not soluble
12 | PRRLEPLIEDGLIDEVVRPLMSGKEASVYVVRCGDSLRCAKVYKEANKRSFRQAAEYQEGRKVRNSRQARAMAKGSKYGRREQEEAWQNAEVAALFRLAGAGVRVPKPYDFLDGVLLMELVADADGDAAPRLNDVTLEPDEARRHHAFLIRQIVAMLCAGLVHGDLSEFNVLLGPDGPVIIDLPQAVDAAGNNHAFSMLERDVGNMAAYFGRFAPELRQTRYAKEMWALYEAGELTAETPLSGTFVEAEEAADVRAVLREIEAAQREEARRQALRQADDAPRGEREE | not soluble
13 | NRMKLMIVGNTGSGKTTLLQQLMKTKKSDLGMQSATVGIDVKDWPIQIRDKRKRDLVLNVWDFAGREEFYSTHPHFMTQRALYLAVYDLSKGQAEVDAMKPWLFNIKARASSSPVILVGTHLDVSDEKQRKACMSKITKELLNKRGFPAIRDYHFVNATEESDALAKLRKTIINESLNFKIRDQ | soluble
14 | GAMGDASRVRVSGQGLHEGHTFEPAEFIIDTRDAGYGGLSLSIEGPSKVDINTEDLEDGTCRVTYCPTEPGNYIINIKFADQHVPGSPFSVKVTGEGRVKESITRRRRAPSVANVGSHCDLSLKIPEISIQDMTAQVTSPSGKTHEAEIVEGENHTYCIRFVPAEMGTHTVSVKYKGQHVPGSPFQFTVGPLGEGGAHKVRAGGPGLERAEAGVPAEFSIWTREAGAGGLAIAVEGPSKAEISFEDRKDGSCGVAYVVQEPGDYEVSVKFNEEHIPDSPFVVPVASPS | soluble
15 | SNAMQVITSVKEAKQIVKDWKSHQLSIGYVPTMGFLHDGHLSLVKHAKTQDKVIVSIFVNPMQFGPNEDFSSYPRDLERDIKMCQDNGVDMVFIPDATQMYLKNFSTYVDMNTITDKLCGAKRPGHFRGVCTVLTKFFNILNPDIVYMGQKDAQQCVVVRHMVDDLNFDLKIQICPIIREEDGLAKSSRNVYLSKEERKASLAISQSIFLAEKLVREGEKNTSKIIQAMKDILEKEKLIKIDYIELVDFNTMENIENITDNVLGAVAAFVGKTRLIDNFLVQGLK | soluble
16 | SLMAGLPNSSNALQQWHHLFEAEGTKRSPQAQQHLQQLLRTGLPTRKHENWKYTPLEGLINSQFVSIAGEISPQQRDALALTLDSVRLVFVDGRYVPALSDATEGSGYEVSINDDRQGLPDAIQAEVFLHLTESLAQSVTHIAVKRGQRPAKPLLLMHITQGVAGEEVNTAHYRHHLDLAEGAEATVIEHFVSLNDARHFTGARFTINVAANAHLQHIKLAFENPLSHHFAHNDLLLAEDATAFSHSFLLGGAVLRHNTSTQLNGENSTLRINSLAMPVKNEVCDTRTWLEHNKGFCNSRQLHKTIVSDKGRAVFNGLINVAQHAIKTDGQMTNNNLLMGKLAEVDTKPQLEIYADDVKCSHGATVGRIDDEQIFYLRSRGINQQDAQQMIIYAFAAELTEALRDEGLKQQVLARIGQRLPGGAREGGSHHHHHH | soluble
17 | MSLSYTKIFGLGGVHEIGKSTLVIHHEKSIAIIDAGIKFADSSTTGLHGIIPNYSYLKKHEDQIEGIFVTHGHEDHIGGIIYLLQQVKINKIFAPKIAIEYLKYKLEDRGLRIKVEFIEIKKDDTHHLGSLVVDFWTAQHSIPDAFGIRVKTPDGSVLCTGDFRIDYRPIGNYTDFSKLEQIGKEGLTLLLSDSTNAMRPNHSPSENDILKDIEKIMLAAKRKIIITTFASNLIRIKVIIELAEKLNKKIAVFGRSMVNGIAIGKELGYIKTPDSSFIDKKSIDQYEDKDIVILTTGSQGEQLAALSRMSYEKHPQVSIRKNDTIIFSSSPIPGNKMKIELLINRLYKLGAIIKENGVDGYLHTSGHAYQEEHEKIFSIAKPKYFFPYHGEYRMSVVHGQTAIRSGVKPENVIIPGIGEVVKMEEGHHHHHH | not soluble
18 | MNIRNARPEDLMNMQHCNLLCLPENYQMKYYFYHGLSWPQLSYIAEDENGKIVGYVLAKMEEDPDDVPHGHITSLAVKRSHRRLGLAQKLMDQASRAMIENFNAKYVSLHVRKSNRAALHLYSNTLNFQISEVEPKYYADGEDAYAMKRDLTQMADEPASGPGSSCLLSGDLGPVSFHPLPSGLLAAAEAAPGAEGKGQAHGSGGLGEQSGEQRQRAFELRRGLS | soluble
19 | MQLVVARIGRAHGIKGEVTVEVRTDEPELRLGPGAVLATDPASTGPLTIESGRVHSGRLLLRFAGVHDRTGAEALRNTLLIADVDPDERPEDEDEYYDHQLIDLDVVTEDGTEVGRITEISHLPTQDLFVVERPDGSEVYVPFVSEIVTGIDLDAQRAVIDPPPGLIDDRAEIASARDAGAEDAGDEALEHHHHHH | soluble
